Laboratory results: US20210032287A1

Molecular target: Syntaxin-1 (GST-tagged) (Homo sapiens (Human)) (UniProt Q16623)
Test: ELISA-based competition assay; peptide (0.1, 0.5, 1 mM) preincubated with GST-Syntaxin-1 (10 or 5 nM), added to His-Munc18 (100 nM) on a nickel plate; anti-GST detection, A450

Chain of Syntaxin-1 (GST-tagged) (Homo sapiens (Human)) (Q16623 1-261 limits assumed): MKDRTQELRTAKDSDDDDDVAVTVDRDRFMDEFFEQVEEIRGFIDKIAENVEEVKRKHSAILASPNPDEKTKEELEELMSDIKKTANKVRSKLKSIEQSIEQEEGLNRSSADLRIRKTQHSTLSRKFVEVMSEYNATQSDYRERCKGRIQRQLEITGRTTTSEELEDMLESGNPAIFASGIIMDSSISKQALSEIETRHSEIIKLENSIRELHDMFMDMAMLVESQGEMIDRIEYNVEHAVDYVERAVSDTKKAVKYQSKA

Row | maximum inhibition of Munc18/Syntaxin-1 binding [%] | Substance
1 | 67 | Ac-HILDMW-NH2
2 | 37 | Ac-His-Ala-Leu-Arg-Phe-Trp-NH2 (peptide)
